B1: TMEM106C (parent)
chain: YVTTNVSLIPPRSEQLVNFTGKAE
B2: MYL5 (parent)
chain: FQFASIDVAGNLDYKALSYVITHG
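Further: lentivirally expressed fusions sorted by FACS into six bins by GFP to DsRed ratio, PSI derived from sequencing read proportions per bin multiplied by bin number.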

The variants in the first series derive from B1. As to the kind of experiment: protein stability index of a GFP-peptide fusion (GPS, HEK-293T) (PSI 1-6); higher = more stable. The settings on record: c terminus: a fixed tail appended.
On to PVTTNVSLIPPRSEQLVNFTGKAE [Y1P], for which the protein stability index stood at 3.49.

In the case of KVTTNVSLIPPRSEQLVNFTGKAE [Y1K], the protein stability index is 3.61.

On to MVTTNVSLIPPRSEQLVNFTGKAE [Y1M], for which the protein stability index is 3.08.

As to QVTTNVSLIPPRSEQLVNFTGKAE [Y1Q], the protein stability index amounted to 3.17.

For the variant CVTTNVSLIPPRSEQLVNFTGKAE [Y1C], the protein stability index turned out to be 2.4.

With RVTTNVSLIPPRSEQLVNFTGKAE [Y1R], the protein stability index turned out to be 3.44.

As to NVTTNVSLIPPRSEQLVNFTGKAE [Y1N], the protein stability index worked out at 3.79.

With FVTTNVSLIPPRSEQLVNFTGKAE [Y1F], the protein stability index was 2.21.

In the case of AVTTNVSLIPPRSEQLVNFTGKAE [Y1A], the protein stability index amounted to 3.53.

In the case of EVTTNVSLIPPRSEQLVNFTGKAE [Y1E], the protein stability index amounted to 3.54.

With TVTTNVSLIPPRSEQLVNFTGKAE [Y1T], the protein stability index was determined as 3.44.

Consider VVTTNVSLIPPRSEQLVNFTGKAE [Y1V], for which the protein stability index came to 2.19.

With WVTTNVSLIPPRSEQLVNFTGKAE [Y1W], the protein stability index is 2.15.

On to LVTTNVSLIPPRSEQLVNFTGKAE [Y1L], for which the protein stability index turned out to be 2.94.

SVTTNVSLIPPRSEQLVNFTGKAE [Y1S]: the protein stability index was 3.24.

In the case of HVTTNVSLIPPRSEQLVNFTGKAE [Y1H], the protein stability index amounted to 3.88.

In the case of IVTTNVSLIPPRSEQLVNFTGKAE [Y1I], the protein stability index is 2.46.

With GVTTNVSLIPPRSEQLVNFTGKAE [Y1G], the protein stability index amounted to 4.

Consider DVTTNVSLIPPRSEQLVNFTGKAE [Y1D], for which the protein stability index was found to be 3.69.

For YHTTNVSLIPPRSEQLVNFTGKAE [V2H], the protein stability index came out at 2.62.

As to YCTTNVSLIPPRSEQLVNFTGKAE [V2C], the protein stability index was 2.3.

Consider YGTTNVSLIPPRSEQLVNFTGKAE [V2G], for which the protein stability index came out at 4.17.

On to YITTNVSLIPPRSEQLVNFTGKAE [V2I], for which the protein stability index amounted to 2.67.

In the case of YNTTNVSLIPPRSEQLVNFTGKAE [V2N], the protein stability index came out at 4.08.

Regarding YSTTNVSLIPPRSEQLVNFTGKAE [V2S], the protein stability index worked out at 3.79.

For the variant YDTTNVSLIPPRSEQLVNFTGKAE [V2D], the protein stability index amounted to 4.58.

Consider YKTTNVSLIPPRSEQLVNFTGKAE [V2K], for which the protein stability index was determined as 3.51.

Take YMTTNVSLIPPRSEQLVNFTGKAE [V2M]: the protein stability index was determined as 3.03.

YPTTNVSLIPPRSEQLVNFTGKAE [V2P]: the protein stability index came out at 3.98.

For the variant YETTNVSLIPPRSEQLVNFTGKAE [V2E], the protein stability index was determined as 4.58.

YTTTNVSLIPPRSEQLVNFTGKAE [V2T]: the protein stability index was found to be 3.48.

In the case of YQTTNVSLIPPRSEQLVNFTGKAE [V2Q], the protein stability index came to 3.28.

YWTTNVSLIPPRSEQLVNFTGKAE [V2W]: the protein stability index turned out to be 2.66.

Turning to YYTTNVSLIPPRSEQLVNFTGKAE [V2Y], the protein stability index was determined as 3.22.

YFTTNVSLIPPRSEQLVNFTGKAE [V2F]: the protein stability index was determined as 2.98.

Regarding YLTTNVSLIPPRSEQLVNFTGKAE [V2L], the protein stability index turned out to be 2.83.

As for YATTNVSLIPPRSEQLVNFTGKAE [V2A], the protein stability index amounted to 2.81.

In the case of YRTTNVSLIPPRSEQLVNFTGKAE [V2R], the protein stability index was 3.23.

For YVTENVSLIPPRSEQLVNFTGKAE [T4E], the protein stability index was 1.94.

Consider YVTANVSLIPPRSEQLVNFTGKAE [T4A], for which the protein stability index turned out to be 1.71.

For the variant YVTCNVSLIPPRSEQLVNFTGKAE [T4C], the protein stability index came out at 1.29.

For the variant YVTDNVSLIPPRSEQLVNFTGKAE [T4D], the protein stability index stood at 2.03.

Consider YVTFNVSLIPPRSEQLVNFTGKAE [T4F], for which the protein stability index worked out at 1.43.

In the case of YVLTNVSLIPPRSEQLVNFTGKAE [T3L], the protein stability index is 2.15.

Take YVNTNVSLIPPRSEQLVNFTGKAE [T3N]: the protein stability index turned out to be 1.82.

YVWTNVSLIPPRSEQLVNFTGKAE [T3W]: the protein stability index came to 2.91.

In the case of YVFTNVSLIPPRSEQLVNFTGKAE [T3F], the protein stability index amounted to 2.58.

Consider YVVTNVSLIPPRSEQLVNFTGKAE [T3V], for which the protein stability index came to 1.98.

As for YVETNVSLIPPRSEQLVNFTGKAE [T3E], the protein stability index was 2.99.

For YVPTNVSLIPPRSEQLVNFTGKAE [T3P], the protein stability index was found to be 3.42.

With YVITNVSLIPPRSEQLVNFTGKAE [T3I], the protein stability index was 2.12.

For YVATNVSLIPPRSEQLVNFTGKAE [T3A], the protein stability index is 2.75.

In the case of YVKTNVSLIPPRSEQLVNFTGKAE [T3K], the protein stability index was determined as 2.18.

As to YVMTNVSLIPPRSEQLVNFTGKAE [T3M], the protein stability index was 1.46.

In the case of YVYTNVSLIPPRSEQLVNFTGKAE [T3Y], the protein stability index was found to be 2.45.

As for YVCTNVSLIPPRSEQLVNFTGKAE [T3C], the protein stability index came out at 2.3.

For the variant YVDTNVSLIPPRSEQLVNFTGKAE [T3D], the protein stability index amounted to 1.9.

As to YVGTNVSLIPPRSEQLVNFTGKAE [T3G], the protein stability index turned out to be 2.11.

YVHTNVSLIPPRSEQLVNFTGKAE [T3H]: the protein stability index is 1.98.

Turning to YVSTNVSLIPPRSEQLVNFTGKAE [T3S], the protein stability index was 1.98.

Consider YVRTNVSLIPPRSEQLVNFTGKAE [T3R], for which the protein stability index worked out at 2.52.

With YVQTNVSLIPPRSEQLVNFTGKAE [T3Q], the protein stability index came to 2.64.

Variants of B2 are the subject of a further series. Described as above. The settings on record: c terminus: a fixed tail appended.
Take FQFASIDVAGNLDSKALSYVITHG [Y14S]: the protein stability index came to 2.15.

For the variant FQFASIDVAGNLDPKALSYVITHG [Y14P], the protein stability index came out at 2.28.

Take FQFASIDVAGNLDTKALSYVITHG [Y14T]: the protein stability index was 3.5.

With FQFASIDVAGNLDRKALSYVITHG [Y14R], the protein stability index is 3.3.

For the variant FQFASIDVAGNLDQKALSYVITHG [Y14Q], the protein stability index came to 2.03.

As for FQFASIDVAGNLDWKALSYVITHG [Y14W], the protein stability index was 3.44.

On to FQFASIDVAGNLDYKALSYVITPG [H23P], for which the protein stability index was 2.56.

On to FQFASIDVAGNLDYKALSYVITKG [H23K], for which the protein stability index is 1.43.

As for FQFASIDVAGNLDYKALSYVITRG [H23R], the protein stability index came out at 2.65.

For FQFASIDVAGNLDYKALSYVITAG [H23A], the protein stability index came to 2.01.

FQFASIDVAGNLDYKALSYVITTG [H23T]: the protein stability index amounted to 2.42.

With FQFASIDVAGNLDYKALSYVITDG [H23D], the protein stability index is 2.25.

Turning to FQFASIDVAGNLDYKALSYVITLG [H23L], the protein stability index was 2.78.

Regarding FQFASIDVAGNLDYKALSYVITQG [H23Q], the protein stability index came out at 3.48.

For the variant FQFASIDVAGNLDYKALSYVITEG [H23E], the protein stability index worked out at 2.44.

Regarding FQFASIDVAGNLDYAALSYVITHG [K15A], the protein stability index was found to be 3.38.

As for FQFASIDVAGNLDYFALSYVITHG [K15F], the protein stability index worked out at 2.81.

As for FQFASIDVAGNLDYQALSYVITHG [K15Q], the protein stability index turned out to be 3.65.

With FQFASIDVAGNLDYNALSYVITHG [K15N], the protein stability index was 2.34.

FQFASIDVAGNLDYGALSYVITHG [K15G]: the protein stability index worked out at 1.5.

Take FQFASIDVAGNLDYTALSYVITHG [K15T]: the protein stability index came to 3.79.

FQFASIDVAGNLDYVALSYVITHG [K15V]: the protein stability index was 2.4.

Regarding FQFASIDVAGNLDYRALSYVITHG [K15R], the protein stability index is 2.16.

FQFASIDVAGNLDYEALSYVITHG [K15E]: the protein stability index turned out to be 1.14.

As for FQFASIDVAGNLDYSALSYVITHG [K15S], the protein stability index was determined as 2.31.

As to FQFASIDVAGNLDYDALSYVITHG [K15D], the protein stability index was 2.81.

For the variant FQFASIDVAGNLDYYALSYVITHG [K15Y], the protein stability index turned out to be 3.8.

Regarding FQFASIDVAGNLDYHALSYVITHG [K15H], the protein stability index turned out to be 2.12.

Take FQFASIDVAGNLDYIALSYVITHG [K15I]: the protein stability index is 2.98.

With FQFASIDVAGNLDYKALSYYITHG [V20Y], the protein stability index worked out at 1.3.

In the case of FQFASIDVAGNLDYKALSYSITHG [V20S], the protein stability index came out at 3.47.

For the variant FQFASIDVAGNLDYKALSYCITHG [V20C], the protein stability index is 3.44.
